Where two headings read alike, the source gives them in different places.
Columns and labels:
human CLDN-18.2 [1] = molecular target: T1, human CLDN-18.2 (human, UniProt P56856 1-261); assay: cell-based or functional assay
human CLDN-18.2 [2] = molecular target: T1, human CLDN-18.2; assay: cell-based or functional assay; remark: listed apart in the source
human CLDN-18.2 [3] = molecular target: T1, human CLDN-18.2; assay: flow cytometry on NUGC4-CLDN-18.2 cells overexpressing human CLDN-18.2, 4 °C 30 min, fluorescent secondary antibody, MFI-PE
Method: Finally, the fluorescence intensity was detected by BD CantoII flow cytometer. […] The antibody dose-dependent binding curve was fitted by GraphPad (FIGS. 1a-1d) and EC50 was calculated. The positive controls were the corresponding monoclonal antibodies, and the negative control was anti-KLH IgG1.

human CLDN-18.2 [4] = molecular target: T1, human CLDN-18.2; assay: cell-based or functional assay; remark: listed apart in the source

IC50 of inhibition of NUGC4-CLDN-18.2 cells proliferation (Cell titer Glo, 48 h) (human CLDN-18.2 [1]) [µg/mL] | EC50 of endocytosis (MFI-APC of CypHer5E-labelled conjugate in NUGC4-CLDN-18.2 cells, 37 °C 4 h, FACS) (human CLDN-18.2 [2]) [µg/mL] | EC50 (human CLDN-18.2 [3]) [µg/mL] | EC50 of endocytosis (MFI-APC of CypHer5E-labelled conjugate in NUGC4-CLDN-18.2 cells, 37 °C 4 h, FACS) (human CLDN-18.2 [4]) [µg/mL] | EC50 of endocytosis (MFI-APC of CypHer5E-labelled antibody in NUGC4-CLDN-18.2 cells, 37 °C 4 h, FACS) (human CLDN-18.2 [4]) [µg/mL] | Binder
0.011 | 2.67 | 0.495 |  |  | ADC-4-MMAE (antibody, human IgG1, kappa, V domains shown, MC-VC-PAB-MMAE (vc-MMAE) coupled after TCEP reduction of the antibody; positions not given; DAR 4.55, also called JS107-4-MMAE) VH: EVQLVESGGGLVQPGGSLRLSCAASGFTLNNFGMHWVRQAPGKGLEWVSSISSGSGTIYYADSVKGRFTISRDNPKNSLYLQMNSLRAEDTAVYYCARAYYGNGFSFWGQGTLVTVSS VL: DIVMTQSPDSLAVSLGERATINCKSSQSLLNSGNQKNYLTWYQQKPGQPPKLLIYWASTRESGVPDRFSGSGSGTDFTLTISSLQAEDVAVYYCQNVYSYPLTFGQGTKLEIKR
0.0127 | 0.937 | 2.96 |  |  | ADC-3-MMAE (antibody, V domains shown, MC-VC-PAB-MMAE (vc-MMAE) coupled after TCEP reduction of the antibody; positions not given; DAR 3.97, also called JS107-3-MMAE) VH: QIQLVQSGSELKKPGESVKVSCKASGYTFTNYGMNWVRQAPGQGLEWMGWINTYTGESTYADGFTGRFVFSSDTSARTAYLQISSLKAEDTAVYFCATLGYGNSLAYWGQGTLVTVSS VL: DIVMTQSPDSLAVSLGERATINCKSSQSLLNSGNQRNYLTWYQQKPGQPPKLLIYWASTRESGVPDRFSGSGSGTDFTLTISSLQAEDVAVYYCQNNYFYPFTFGQGTKLEIKR
0.00936 | 1.61 | 1.21 |  |  | ADC-4-MMAF (antibody, human IgG1, kappa, V domains shown, MC-MMAF coupled after TCEP reduction of the antibody; positions not given; DAR 3.85, also called JS107-4-MMAF) VH: EVQLVESGGGLVQPGGSLRLSCAASGFTLNNFGMHWVRQAPGKGLEWVSSISSGSGTIYYADSVKGRFTISRDNPKNSLYLQMNSLRAEDTAVYYCARAYYGNGFSFWGQGTLVTVSS VL: DIVMTQSPDSLAVSLGERATINCKSSQSLLNSGNQKNYLTWYQQKPGQPPKLLIYWASTRESGVPDRFSGSGSGTDFTLTISSLQAEDVAVYYCQNVYSYPLTFGQGTKLEIKR
 |  | 1.65 |  |  | JS012-Chi2-hu2-v3-2 (antibody, human IgG1, kappa, V domains shown, also called JS107-4) VH: EVQLVESGGGLVQPGGSLRLSCAASGFTLNNFGMHWVRQAPGKGLEWVSSISSGSGTIYYADSVKGRFTISRDNPKNSLYLQMNSLRAEDTAVYYCARAYYGNGFSFWGQGTLVTVSS VL: DIVMTQSPDSLAVSLGERATINCKSSQSLLNSGNQKNYLTWYQQKPGQPPKLLIYWASTRESGVPDRFSGSGSGTDFTLTISSLQAEDVAVYYCQNVYSYPLTFGQGTKLEIKR
 |  | 0.23 | 21.8 |  | ADC-5-MMAE (antibody, human IgG1, kappa, V domains shown, MC-VC-PAB-MMAE (vc-MMAE) coupled after TCEP reduction of the antibody; positions not given; DAR 4.1, also called JS107-5-MMAE) VH: EVQLVESGGGLVQPGGSLRLSCAASGFTLNNFGMHWVRQAPGKGLEWVSSISSGSGTIYYADSVKGRFTISRDNPKNSLYLQMNSLRAEDTAVYYCARAYYGNGFSFWGQGTLVTVSS VL: DIVMTQSPDSLAVSLGERATINCKSSQSLLNSGNQKNYLTWYQQKPGQPPKLLIYWASTRESGVPDRFSGSGSGTDFTLTISSLQAEDVAVYYCQNVYSYPLTFGQGTKLEIKR
 |  | 0.347 |  | 58.8 | JS012-Chi2-hu2-v3-2a (antibody, human IgG1, kappa, V domains shown, also called JS107-5) VH: EVQLVESGGGLVQPGGSLRLSCAASGFTLNNFGMHWVRQAPGKGLEWVSSISSGSGTIYYADSVKGRFTISRDNPKNSLYLQMNSLRAEDTAVYYCARAYYGNGFSFWGQGTLVTVSS VL: DIVMTQSPDSLAVSLGERATINCKSSQSLLNSGNQKNYLTWYQQKPGQPPKLLIYWASTRESGVPDRFSGSGSGTDFTLTISSLQAEDVAVYYCQNVYSYPLTFGQGTKLEIKR
 |  | 3.76 |  |  | JS012-Chi9-hu7 (antibody, human IgG1, kappa, V domains shown, also called JS107-3; JS012-chi9-hu07) VH: QIQLVQSGSELKKPGESVKVSCKASGYTFTNYGMNWVRQAPGQGLEWMGWINTYTGESTYADGFTGRFVFSSDTSARTAYLQISSLKAEDTAVYFCATLGYGNSLAYWGQGTLVTVSS VL: DIVMTQSPDSLAVSLGERATINCKSSQSLLNSGNQRNYLTWYQQKPGQPPKLLIYWASTRESGVPDRFSGSGSGTDFTLTISSLQAEDVAVYYCQNNYFYPFTFGQGTKLEIKR
